{"source": "patent US20180072772A1", "about": "(CALIFORNIA INSTITUTE OF TECHNOLOGY, published 2018)", "binders": {"B1": {"name": "triligand 9 (ivdae-yleaf-yksy, form used in fluorescence polarization) (peptide)", "peptide 1": "[dI][dV][dD][dA][dE]", "peptide 2": "[dY][dL][dE][dA][dF]", "peptide 3": "[dY][dK][dS][dY]", "modifications": "not fully specified (N-terminus, C-terminus); also: fluorescence polarization label, not described, triazole to a chain's N/C-terminus, triazole to a chain's N/C-terminus"}, "B2": {"name": "triligand candidate iryrn (iryrn-yleaf-yksy) (peptide)", "peptide 1": "[dI][dR][dY][dR][dN]", "peptide 2": "[Lys(N3)][dY][dL][dE][dA][dF][dPra]", "peptide 3": "[dY][dK][dS][dY]", "modifications": "not fully specified (N-terminus, C-terminus); also: triazole to a chain's N/C-terminus, triazole to a chain's N/C-terminus"}, "B3": {"name": "yleaf (SEQ ID NO: 43) anchor ligand 4 (peptide)", "peptide": "[dY][dL][dE][dA][dF]", "modifications": "also: fluorescence polarization label not described"}, "B4": {"name": "Biotin-PEG5-yleaf(SEQ ID NO: 43)-Pra anchor ligand (peptide)", "peptide": "{Biotin-PEG5′}-[dY][dL][dE][dA][dF]", "modifications": "not fully specified (C-terminus)"}, "B5": {"name": "yleaf(SEQ ID NO: 43)-Tz-yksy(SEQ ID NO: 76) biligand, N-terminal PEG5-biotin (peptide)", "peptide 1": "[dY][dL][dE][dA][dF]", "peptide 2": "[dY][dK][dS][dY]", "modifications": "not fully specified (N-terminus, C-terminus, bridges); also: triazole to a chain's N/C-terminus"}, "B6": {"name": "Biotin-PEG5-ivdae(SEQ ID NO: 78)-yleaf(SEQ ID NO: 43)-yksy(SEQ ID NO: 76) triligand (peptide)", "peptide 1": "[dI][dV][dD][dA][dE]", "peptide 2": "[Lys(N3)][dY][dL][dE][dA][dF][dPra]", "peptide 3": "[dY][dK][dS][dY]", "modifications": "not fully specified (N-terminus, C-terminus); also: triazole to a chain's N/C-terminus, triazole to a chain's N/C-terminus"}, "B7": {"name": "PEG5-TAT-Cy5 (peptide)", "peptide": "[PEG5″]YGRKKRRQRR-Cy5", "notes": "Control without the yleaf anchor; also called blank of PEG5-TAT-Cy5; control with no anchor ligand peptide"}}, "key": {"[1]": {"target": "full length Akt1E17K (Homo sapiens (Human)) (UniProt P31749)", "experiment": "fluorescence polarization in solution, full-length Akt1 titrated"}, "[2]": {"target": "E17K GST-PH Domain (Homo sapiens (Human)) (UniProt P31749)", "experiment": "ELISA: biotinylated triligand candidate on streptavidin plate, GST-PH Domain titrated, anti-GST-HRP detection"}, "[3]": {"target": "full length Akt1E17K (Homo sapiens (Human)) (UniProt P31749)", "experiment": "fluorescence polarization KD values compared"}, "[4]": {"target": "6His-PEG5-Mut 33mer Fragment (E17K 33-mer epitope without alkyne click handle)", "sequence (peptide, as listed by the source E17K E17K)": "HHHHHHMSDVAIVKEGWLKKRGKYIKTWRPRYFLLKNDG", "experiment": "fluorescence polarization, in solution"}, "[5]": {"target": "full length Akt1E17K (Homo sapiens (Human)) (UniProt P31749)", "experiment": "fluorescence polarization, in solution"}, "[6]": {"target": "6His-PEG5-WT 33mer Fragment (wildtype 33-mer epitope without alkyne click handle)", "sequence (peptide, as listed by the source)": "as the sequence (peptide, as listed by the source E17K E17K) above, with K23E counted along it", "experiment": "fluorescence polarization, in solution"}, "[7]": {"target": "E17K GST-PH Domain (Homo sapiens (Human)) (UniProt P31749)", "experiment": "ELISA, biotinylated ligand on streptavidin plate, GST-PH Domain titrated, anti-GST detection"}, "[8]": {"target": "T1, GFP-tagged E17K PH Domain protein (Homo sapiens (Human), UniProt P31749 1-124)", "T1 construct": "Cloned from pUNO-hAKT1 and mutated; also called GFP-E17K PHD; E17K mutant GFP-PH domain; not shown: GFP of the TOPO C-terminal GFP mammalian vector", "T1 chain": "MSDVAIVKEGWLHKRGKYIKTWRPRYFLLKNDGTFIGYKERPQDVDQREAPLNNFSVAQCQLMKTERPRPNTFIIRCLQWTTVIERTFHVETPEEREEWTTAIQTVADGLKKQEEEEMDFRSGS", "experiment": "confocal imaging of HEK-293T cells expressing GFP-PH Domain"}}, "note": "Primed or numbered codes have the meaning given here. Where no end group is shown, it is not given here. [ ]: non-standard residue; d: D form. The star is where a group is joined. Biotin = O=C1N[C@H]2[C@H](CS[C@H]2CCCCC(=O)*)N1; Lys(N3) = [N-]=[N+]=NCCCC[C@H](N)C(=O)O; dPra = C#CC[C@@H](N)C(=O)O; PEG5″ = not defined here; PEG5′ = PEG5 linker"}
{"binder": "B1", "values": [{"measurement": "EC50 (read off the curve)", "setting": "[1]", "value": 100, "unit": "nM"}]}
{"binder": "B2", "values": [{"measurement": "EC50 (read off the curve)", "setting": "[2]", "value": 10, "unit": "nM"}]}
{"binder": "B3", "values": [{"measurement": "selectivity for E17K relative to WT (fold (E17K:WT))", "setting": "[3]", "value": 10}, {"measurement": "Kd", "setting": "[4]", "value": 328, "unit": "nM"}, {"measurement": "Kd", "setting": "[5]", "value": 54, "unit": "nM"}, {"measurement": "Kd", "setting": "[6]", "value": 2800, "unit": "nM"}]}
{"binder": "B4", "values": [{"measurement": "EC50", "setting": "[7]", "value": 61, "unit": "nM"}]}
{"binder": "B5", "values": [{"measurement": "EC50", "setting": "[7]", "value": 19, "unit": "nM"}]}
{"binder": "B6", "values": [{"measurement": "EC50", "setting": "[7]", "value": 45, "unit": "nM"}]}
{"binder": "B7", "values": [{"measurement": "binding result", "setting": "[8]", "value": "no binding (tested: 50 nM)"}]}
